Measured values published in PMC9482650, “Quantitative fragmentomics allow affinity mapping of interactomes” (Nature Communications, 2022).

T1: APBA1_1, Q02410
T1 sequence (Q02410 651-752, limits assumed, looked up): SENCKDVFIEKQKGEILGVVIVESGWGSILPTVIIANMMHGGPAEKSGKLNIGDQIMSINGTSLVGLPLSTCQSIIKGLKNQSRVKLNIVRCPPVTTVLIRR

T2: NHERF3_1, Q5T2W1
T2 sequence (Q5T2W1 4-100, limits assumed, looked up): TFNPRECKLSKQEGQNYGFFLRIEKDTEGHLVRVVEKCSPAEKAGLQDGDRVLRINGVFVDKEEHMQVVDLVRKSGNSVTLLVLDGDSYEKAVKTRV

T3: LNX2_2, Q8N448
T3 sequence (Q8N448 334-432, limits assumed, looked up): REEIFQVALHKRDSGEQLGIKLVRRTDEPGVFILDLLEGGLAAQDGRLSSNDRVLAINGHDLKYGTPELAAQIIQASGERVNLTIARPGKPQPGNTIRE

T4: DLG3_2, Q92796
T4 sequence (Q92796 221-321, limits assumed, looked up): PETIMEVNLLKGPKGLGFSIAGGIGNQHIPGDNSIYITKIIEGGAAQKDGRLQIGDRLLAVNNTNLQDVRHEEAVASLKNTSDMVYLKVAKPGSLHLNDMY

T5: GRIP1_5, Q9Y3R0
T5 sequence (Q9Y3R0 568-668, limits assumed, looked up): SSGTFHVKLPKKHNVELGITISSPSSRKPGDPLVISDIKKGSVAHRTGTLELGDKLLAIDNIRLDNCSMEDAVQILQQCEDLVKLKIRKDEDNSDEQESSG

T6: APBA2_1, Q99767
T6 sequence (Q99767 563-664, limits assumed, looked up): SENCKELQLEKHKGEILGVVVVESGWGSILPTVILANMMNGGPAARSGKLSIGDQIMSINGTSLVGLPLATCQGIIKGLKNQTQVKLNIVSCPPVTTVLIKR

T7: APBA1_2, Q02410
T7 sequence (Q02410 742-832, limits assumed, looked up): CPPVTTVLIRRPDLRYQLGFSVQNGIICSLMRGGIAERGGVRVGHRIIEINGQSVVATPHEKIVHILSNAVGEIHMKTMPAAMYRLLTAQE

T8: RHPN1, Q8TCX5
T8 sequence (Q8TCX5 508-602, limits assumed, looked up): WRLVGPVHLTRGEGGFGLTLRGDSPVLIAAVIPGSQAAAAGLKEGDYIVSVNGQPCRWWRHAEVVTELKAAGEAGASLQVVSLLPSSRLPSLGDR

T9: NHERF3_3, Q5T2W1
T9 sequence (Q5T2W1 238-333, limits assumed, looked up): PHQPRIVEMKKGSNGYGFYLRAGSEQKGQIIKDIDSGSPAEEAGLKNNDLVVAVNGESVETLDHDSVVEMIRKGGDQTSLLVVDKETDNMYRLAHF

T10: GRIP1_3, Q9Y3R0
T10 sequence (Q9Y3R0 247-346, limits assumed, looked up): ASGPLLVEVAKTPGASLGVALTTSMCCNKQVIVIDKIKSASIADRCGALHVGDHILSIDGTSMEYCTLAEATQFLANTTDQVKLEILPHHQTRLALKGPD

T11: SYNJ2BP, P57105
T11 sequence (P57105 8-110, limits assumed, looked up): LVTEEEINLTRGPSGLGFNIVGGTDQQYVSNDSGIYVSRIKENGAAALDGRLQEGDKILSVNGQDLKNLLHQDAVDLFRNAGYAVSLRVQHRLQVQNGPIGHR

T12: MPP2, Q14168
T12 sequence (Q14168 180-250, limits assumed, looked up): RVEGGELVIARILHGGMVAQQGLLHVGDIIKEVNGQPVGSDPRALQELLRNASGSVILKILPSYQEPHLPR


biological target: HTRA1, Q92743; assay: holdup assay; design: key: below the threshold = too weak to quantify, mostly under pKd 3.1 to 4; conditions: plain residues with an end cap or a label only (N-terminal biotin on a linker: ado-ado)
Sequence (Q92743 360-477): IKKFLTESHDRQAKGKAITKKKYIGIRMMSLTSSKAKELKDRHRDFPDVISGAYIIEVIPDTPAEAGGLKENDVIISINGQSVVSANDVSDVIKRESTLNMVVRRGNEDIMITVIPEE

pKd | Binder
3.77 | PSDSVGKDVF [EGLN1, Q9GZT9]
below the threshold | VYEVPVETKF [SLC26A3, P40879]

biological target: GRID2IP_2, A4D2P6; assay: holdup assay; design: key: below the threshold = too weak to quantify, mostly under pKd 3.1 to 4; conditions: plain residues with an end cap or a label only (N-terminal biotin on a linker: ado-ado)
Sequence (A4D2P6 272-370): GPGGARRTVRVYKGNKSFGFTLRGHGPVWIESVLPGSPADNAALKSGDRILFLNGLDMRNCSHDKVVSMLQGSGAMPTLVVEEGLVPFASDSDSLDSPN

pKd | Binder
below the threshold | PSDSVGKDVF [EGLN1, Q9GZT9]
below the threshold | VYEVPVETKF [SLC26A3, P40879]

biological target: IL16_3, Q14005; assay: holdup assay; design: key: below the threshold = too weak to quantify, mostly under pKd 3.1 to 4; conditions: plain residues with an end cap or a label only (N-terminal biotin on a linker: ado-ado)
Sequence (Q14005 1107-1207): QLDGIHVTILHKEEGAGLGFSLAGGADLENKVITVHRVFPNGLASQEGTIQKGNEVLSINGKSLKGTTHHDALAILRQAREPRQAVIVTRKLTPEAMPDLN

pKd | Binder
below the threshold | PSDSVGKDVF [EGLN1, Q9GZT9]
below the threshold | VYEVPVETKF [SLC26A3, P40879]

biological target: GRIP2_4, Q9C0E4; assay: holdup assay; design: key: below the threshold = too weak to quantify, mostly under pKd 3.1 to 4; conditions: plain residues with an end cap or a label only (N-terminal biotin on a linker: ado-ado)
Sequence (Q9C0E4 446-548): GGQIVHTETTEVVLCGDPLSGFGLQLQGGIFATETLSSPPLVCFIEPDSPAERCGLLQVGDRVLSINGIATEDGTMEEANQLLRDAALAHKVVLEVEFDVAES

pKd | Binder
below the threshold | PSDSVGKDVF [EGLN1, Q9GZT9]
below the threshold | VYEVPVETKF [SLC26A3, P40879]

biological target: PDLIM1, O00151; assay: holdup assay; design: key: below the threshold = too weak to quantify, mostly under pKd 3.1 to 4; conditions: plain residues with an end cap or a label only (N-terminal biotin on a linker: ado-ado)
Sequence (O00151 1-87): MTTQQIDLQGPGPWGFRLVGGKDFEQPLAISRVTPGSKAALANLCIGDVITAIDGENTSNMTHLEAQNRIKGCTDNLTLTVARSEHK

pKd | Binder
below the threshold | PSDSVGKDVF [EGLN1, Q9GZT9]
below the threshold | VYEVPVETKF [SLC26A3, P40879]

biological target: T1, APBA1_1, Q02410; assay: holdup assay; design: key: below the threshold = too weak to quantify, mostly under pKd 3.1 to 4; conditions: plain residues with an end cap or a label only (N-terminal biotin on a linker: ado-ado)

pKd | Binder
below the threshold | PSDSVGKDVF [EGLN1, Q9GZT9]
below the threshold | VYEVPVETKF [SLC26A3, P40879]

biological target: DLG4_1, P78352; assay: holdup assay; design: key: below the threshold = too weak to quantify, mostly under pKd 3.1 to 4; conditions: plain residues with an end cap or a label only (N-terminal biotin on a linker: ado-ado)
Sequence (P78352 62-152): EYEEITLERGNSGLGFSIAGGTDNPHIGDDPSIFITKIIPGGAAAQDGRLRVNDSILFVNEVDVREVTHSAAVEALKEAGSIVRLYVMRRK

pKd | Binder
below the threshold | PSDSVGKDVF [EGLN1, Q9GZT9]
below the threshold | VYEVPVETKF [SLC26A3, P40879]

biological target: T2, NHERF3_1, Q5T2W1; assay: holdup assay; design: key: below the threshold = too weak to quantify, mostly under pKd 3.1 to 4; conditions: plain residues with an end cap or a label only (N-terminal biotin on a linker: ado-ado)

pKd | Binder
below the threshold | PSDSVGKDVF [EGLN1, Q9GZT9]
5.51 | VYEVPVETKF [SLC26A3, P40879]

biological target: PICK1, Q9NRD5; assay: holdup assay; design: key: below the threshold = too weak to quantify, mostly under pKd 3.1 to 4; conditions: plain residues with an end cap or a label only (N-terminal biotin on a linker: ado-ado)
Sequence (Q9NRD5 17-115): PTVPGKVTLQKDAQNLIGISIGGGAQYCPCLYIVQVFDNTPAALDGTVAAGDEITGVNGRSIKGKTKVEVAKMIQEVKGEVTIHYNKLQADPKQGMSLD

pKd | Binder
below the threshold | PSDSVGKDVF [EGLN1, Q9GZT9]
4.19 | VYEVPVETKF [SLC26A3, P40879]

biological target: GRIP2_5, Q9C0E4; assay: holdup assay; design: key: below the threshold = too weak to quantify, mostly under pKd 3.1 to 4; conditions: plain residues with an end cap or a label only (N-terminal biotin on a linker: ado-ado)
Sequence (Q9C0E4 544-642): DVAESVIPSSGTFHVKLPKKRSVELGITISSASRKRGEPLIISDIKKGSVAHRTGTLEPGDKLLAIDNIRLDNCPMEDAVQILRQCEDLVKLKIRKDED

pKd | Binder
below the threshold | PSDSVGKDVF [EGLN1, Q9GZT9]
below the threshold | VYEVPVETKF [SLC26A3, P40879]

biological target: T3, LNX2_2, Q8N448; assay: holdup assay; design: key: below the threshold = too weak to quantify, mostly under pKd 3.1 to 4; conditions: plain residues with an end cap or a label only (N-terminal biotin on a linker: ado-ado)

pKd | Binder
below the threshold | PSDSVGKDVF [EGLN1, Q9GZT9]
below the threshold | VYEVPVETKF [SLC26A3, P40879]

biological target: T4, DLG3_2, Q92796; assay: holdup assay; design: key: below the threshold = too weak to quantify, mostly under pKd 3.1 to 4; conditions: plain residues with an end cap or a label only (N-terminal biotin on a linker: ado-ado)

pKd | Binder
4.07 | PSDSVGKDVF [EGLN1, Q9GZT9]
4.13 | VYEVPVETKF [SLC26A3, P40879]

biological target: T5, GRIP1_5, Q9Y3R0; assay: holdup assay; design: key: below the threshold = too weak to quantify, mostly under pKd 3.1 to 4; conditions: plain residues with an end cap or a label only (N-terminal biotin on a linker: ado-ado)

pKd | Binder
below the threshold | PSDSVGKDVF [EGLN1, Q9GZT9]
below the threshold | VYEVPVETKF [SLC26A3, P40879]

biological target: MAGI1_1, Q96QZ7; assay: holdup assay; design: key: below the threshold = too weak to quantify, mostly under pKd 3.1 to 4; conditions: plain residues with an end cap or a label only (N-terminal biotin on a linker: ado-ado)
Sequence (Q96QZ7 1-106): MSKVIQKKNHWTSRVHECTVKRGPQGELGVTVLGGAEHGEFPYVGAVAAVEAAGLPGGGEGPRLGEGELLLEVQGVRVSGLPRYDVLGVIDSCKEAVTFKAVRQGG

pKd | Binder
below the threshold | PSDSVGKDVF [EGLN1, Q9GZT9]
below the threshold | VYEVPVETKF [SLC26A3, P40879]

biological target: FRMPD3, Q5JV73; assay: holdup assay; design: key: below the threshold = too weak to quantify, mostly under pKd 3.1 to 4; conditions: plain residues with an end cap or a label only (N-terminal biotin on a linker: ado-ado)
Sequence (Q5JV73 12-100): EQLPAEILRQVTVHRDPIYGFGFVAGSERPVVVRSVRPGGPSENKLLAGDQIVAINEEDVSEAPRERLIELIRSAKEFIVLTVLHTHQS

pKd | Binder
below the threshold | PSDSVGKDVF [EGLN1, Q9GZT9]
below the threshold | VYEVPVETKF [SLC26A3, P40879]

biological target: T6, APBA2_1, Q99767; assay: holdup assay; design: key: below the threshold = too weak to quantify, mostly under pKd 3.1 to 4; conditions: plain residues with an end cap or a label only (N-terminal biotin on a linker: ado-ado)

pKd | Binder
below the threshold | PSDSVGKDVF [EGLN1, Q9GZT9]
below the threshold | VYEVPVETKF [SLC26A3, P40879]

biological target: T7, APBA1_2, Q02410; assay: holdup assay; design: key: below the threshold = too weak to quantify, mostly under pKd 3.1 to 4; conditions: plain residues with an end cap or a label only (N-terminal biotin on a linker: ado-ado)

pKd | Binder
below the threshold | PSDSVGKDVF [EGLN1, Q9GZT9]
3.58 | VYEVPVETKF [SLC26A3, P40879]

biological target: T8, RHPN1, Q8TCX5; assay: holdup assay; design: key: below the threshold = too weak to quantify, mostly under pKd 3.1 to 4; conditions: plain residues with an end cap or a label only (N-terminal biotin on a linker: ado-ado)

pKd | Binder
below the threshold | PSDSVGKDVF [EGLN1, Q9GZT9]
4.03 | VYEVPVETKF [SLC26A3, P40879]

biological target: Inadl_8, Q8NI35; assay: holdup assay; design: key: below the threshold = too weak to quantify, mostly under pKd 3.1 to 4; conditions: plain residues with an end cap or a label only (N-terminal biotin on a linker: ado-ado)
Sequence (Q8NI35 1425-1530): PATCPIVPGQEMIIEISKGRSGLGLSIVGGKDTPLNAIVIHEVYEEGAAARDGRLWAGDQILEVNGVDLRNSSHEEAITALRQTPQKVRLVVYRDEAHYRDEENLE

pKd | Binder
below the threshold | PSDSVGKDVF [EGLN1, Q9GZT9]
below the threshold | VYEVPVETKF [SLC26A3, P40879]

biological target: DLG4_2, P78352; assay: holdup assay; design: key: below the threshold = too weak to quantify, mostly under pKd 3.1 to 4; conditions: plain residues with an end cap or a label only (N-terminal biotin on a linker: ado-ado)
Sequence (P78352 155-259): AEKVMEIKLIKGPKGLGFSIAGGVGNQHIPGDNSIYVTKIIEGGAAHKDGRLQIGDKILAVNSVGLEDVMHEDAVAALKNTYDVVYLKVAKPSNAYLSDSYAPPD

pKd | Binder
below the threshold | PSDSVGKDVF [EGLN1, Q9GZT9]
3.66 | VYEVPVETKF [SLC26A3, P40879]

biological target: T9, NHERF3_3, Q5T2W1; assay: holdup assay; design: key: below the threshold = too weak to quantify, mostly under pKd 3.1 to 4; conditions: plain residues with an end cap or a label only (N-terminal biotin on a linker: ado-ado)

pKd | Binder
below the threshold | PSDSVGKDVF [EGLN1, Q9GZT9]
4.16 | VYEVPVETKF [SLC26A3, P40879]

biological target: T10, GRIP1_3, Q9Y3R0; assay: holdup assay; design: key: below the threshold = too weak to quantify, mostly under pKd 3.1 to 4; conditions: plain residues with an end cap or a label only (N-terminal biotin on a linker: ado-ado)

pKd | Binder
below the threshold | PSDSVGKDVF [EGLN1, Q9GZT9]
below the threshold | VYEVPVETKF [SLC26A3, P40879]

biological target: T11, SYNJ2BP, P57105; assay: holdup assay; design: key: below the threshold = too weak to quantify, mostly under pKd 3.1 to 4; conditions: plain residues with an end cap or a label only (N-terminal biotin on a linker: ado-ado)

pKd | Binder
below the threshold | PSDSVGKDVF [EGLN1, Q9GZT9]
3.57 | VYEVPVETKF [SLC26A3, P40879]

biological target: DLG2_3, Q15700; assay: holdup assay; design: key: below the threshold = too weak to quantify, mostly under pKd 3.1 to 4; conditions: plain residues with an end cap or a label only (N-terminal biotin on a linker: ado-ado)

pKd | Binder
3.57 | PSDSVGKDVF [EGLN1, Q9GZT9]
3.74 | VYEVPVETKF [SLC26A3, P40879]

biological target: NOS1, P29475; assay: holdup assay; design: key: below the threshold = too weak to quantify, mostly under pKd 3.1 to 4; conditions: plain residues with an end cap or a label only (N-terminal biotin on a linker: ado-ado)
Sequence (P29475 9-101): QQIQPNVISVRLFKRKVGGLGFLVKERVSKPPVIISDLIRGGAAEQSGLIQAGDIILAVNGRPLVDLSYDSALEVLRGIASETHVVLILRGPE

pKd | Binder
below the threshold | PSDSVGKDVF [EGLN1, Q9GZT9]
3.72 | VYEVPVETKF [SLC26A3, P40879]

biological target: T12, MPP2, Q14168; assay: holdup assay; design: key: below the threshold = too weak to quantify, mostly under pKd 3.1 to 4; conditions: plain residues with an end cap or a label only (N-terminal biotin on a linker: ado-ado)

pKd | Binder
below the threshold | PSDSVGKDVF [EGLN1, Q9GZT9]
below the threshold | VYEVPVETKF [SLC26A3, P40879]
